# Molecular target: superGmFLS2, C-terminal mEGFP (soybean (Glycine max))
substance,measurement,value
"NbBAK1 (BRASSINOSTEROID … 1-ASSOCIATED KINASE 1 of Nicotiana benthamiana), C-terminal 4xHA (receptor)","total flg22^Rso-induced ROS production in N. benthamiana fls2 leaves, against wild-type GmFLS2b",> 3 fold
